Reference: patent publication US20050227289A1 (published 2005)
Positions count from the first letter of the chain named.

T1: soluble EpoR (EposR), soluble recombinant human erythropoietin receptor (human, UniProt P19235 25-250, limits assumed)
T1 construct: Called only 'soluble EpoR (EposR)'
T1 sequence (looked up): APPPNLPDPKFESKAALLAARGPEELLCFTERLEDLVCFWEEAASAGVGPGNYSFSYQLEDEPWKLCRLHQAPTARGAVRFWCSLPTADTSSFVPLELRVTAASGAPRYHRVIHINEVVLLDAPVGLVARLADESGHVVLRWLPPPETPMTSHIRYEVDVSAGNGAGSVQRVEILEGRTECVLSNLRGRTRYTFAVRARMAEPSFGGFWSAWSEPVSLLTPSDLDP

T2: soluble EpoR (EposR), soluble recombinant human erythropoietin receptor (human) (UniProt P19235)
T2 sequence (looked up): T1 sequence (looked up)

T3: human erythropoietin receptor (EpoR) on UT-7/Epo cells (human, UniProt P19235 25-508)
T3 sequence (looked up): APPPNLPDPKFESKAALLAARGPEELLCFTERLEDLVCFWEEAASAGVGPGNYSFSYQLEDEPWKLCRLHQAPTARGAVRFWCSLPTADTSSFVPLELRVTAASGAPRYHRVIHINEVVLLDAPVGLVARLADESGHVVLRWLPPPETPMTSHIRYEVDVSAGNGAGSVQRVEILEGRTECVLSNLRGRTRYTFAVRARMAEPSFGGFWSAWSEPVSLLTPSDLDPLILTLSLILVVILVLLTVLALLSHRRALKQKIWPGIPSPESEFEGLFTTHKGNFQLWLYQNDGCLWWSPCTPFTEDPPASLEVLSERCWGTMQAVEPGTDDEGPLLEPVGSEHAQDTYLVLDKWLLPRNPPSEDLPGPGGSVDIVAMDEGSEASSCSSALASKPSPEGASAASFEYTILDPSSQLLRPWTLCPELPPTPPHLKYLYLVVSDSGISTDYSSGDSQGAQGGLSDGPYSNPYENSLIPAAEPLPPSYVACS

B1: Ab12 41/34 (scFv)
scFv: QVQLQESGPGLVKPSETLSLTCTVSGASISSYYWSWIRQPPGKGLEWIGYIYYSGSTNYNPSLKSRVTISVDTSKNQFSLKLRSVTAADTAVYYCARERLGIGDYWGQGTLVTVSSGHEAAAVMQVQYPASDIQLTQSPSSLSASVGDRVTITCRASQGIRNDLGWYQQKPGKAPKRLIYAASSLQSGVPSRFSGSGSGTEFTLTISSLQPEDFATYYCLQHNTYPPTFGQGTKVEIK
notes: not shown: Aga2/Xpress display part of pYD1 before the tether, and the C-terminal V5 and His tags
B2: Ab12 WT/WT (scFv)
scFv: QVQLQESGPGLVKPSETLSLTCTVSGASISSYYWSWIRQPPGKGLEWIGYIYYSGSTNYNPSLKSRVTISVDTSKNQFSLKLRSVTAADTAVYYCARERLGIGDYWGQGTLVTVSSGGGGSGGGGSGGGGSDIQLTQSPSSLSASVGDRVTITCRASQGIRNDLGWYQQKPGKAPKRLIYAASSLQSGVPSRFSGSGSGTEFTLTISSLQPEDFATYYCLQHNTYPPTFGQGTKVEIK
notes: as for B1
B3: Ab12 41/WT (scFv, part only; not given: display fusion parts and tags, part only)
scFv fusion displayed on yeast, part: GENKVEYAPALMALSQVQLQESGPGLVKPSETLSLTCTVSGASISSYYWSWIRQPPGKGLEWIGYIYYSGSTNYNPSLKSRVTISVDTSKNQFSLKLRSVTAADTAVYYCARERLGIGDYWGQGTLVTVSSGGGGSGGGGSGGGGSDIQLTQSPSSLSASVGDRVTITCRASQGIRNDLGWYQQKPGKAPKRLIYAASSLQSGVPSRFSGSGSGTEFTLTISSLQPEDFATYYCLQHNTYPPTFGQGTKVEIK
B4: Ab12 IgG2/K (antibody, V domains shown)
VH: QVQLQESGPGLVKPSETLSLTCTVSGASISSYYWSWIRQPPGKGLEWIGYIYYSGSTNYNPSLKSRVTISVDTSKNQFSLKLRSVTAADTAVYYCARERLGIGDYWGQGTLVTVSS
VL: DIQLTQSPSSLSASVGDRVTITCRASQGIRNDLGWYQQKPGKAPKRLIYAASSLQSGVPSRFSGSGSGTEFTLTISSLQPEDFATYYCLQHNTYPPTFGQGTKVEIK
B5: Ab12.122 (antibody, IgG2, V domains shown)
VH: B4 VH with Y53G, S54E
VL: B4 VL
B6: Ab12.120 (antibody, IgG2, V domains shown)
VH: B4 VH with S54E
VL: B4 VL
B7: Ab12.56 (antibody, V domains shown)
VH: B4 VH with Y52A, Y53G, S54T
VL: B4 VL
B8: Ab12.123 (antibody, IgG2, V domains shown)
VH: B4 VH with Y52G, S54E
VL: B4 VL
B9: Ab12.118 (antibody, IgG2, V domains shown)
VH: B4 VH with Y52G
VL: B4 VL
B10: Ab12.6 (antibody, V domains shown)
VH: B4 VH with Y52G, Y53G, S54E
VL: B4 VL
B11: Ab12.119 (antibody, IgG2, V domains shown)
VH: B4 VH with Y53G
VL: B4 VL
B12: Ab12.121 (antibody, IgG2, V domains shown)
VH: B4 VH with Y52G, Y53G
VL: B4 VL

target: T1, soluble EpoR (EposR), soluble …; test: equilibrium titration of soluble EpoR on yeast-displayed scFv at 37 C, flow cytometry, detection with MAB307 + anti-mouse RPE
Excerpt: FIG. 2 is a graph showing equilibrium binding of soluble EpoR with various Ab12 scFv constructs expressed on the surface of yeast cells. In FIG. 2, -▪- represents an Ab12 scFv construct comprising a Gly/Ser linker (WT), […] (SEQ ID NO:1) in both the tether and scFv linker positions, -●- represents an […] comprising linker 41, GENKVEYAPALMALS (SEQ ID NO:2) in the tether position and the Gly/Ser linker (WT) (SEQ ID NO:1) in the scFv linker position, -▴- represents an Ab12 scFv construct comprising linker 41 (SEQ ID NO:2) in the tether position and linker 40, […] (SEQ ID NO:3) in the scFv linker position, and -▾- represents an Ab12 scFv construct comprising linker 41 (SEQ ID NO:2) in the tether position and linker 34, […] (SEQ ID NO:4) in the scFv linker position.
Various single stranded oligonucleotides encoding Ab12 scFvs were co-transformed with a linearized “gapped” vector derived from pYD1 (Invitrogen, Carlsbad, Calif.) into yeast by techniques well known to practitioners in the art. Cell surface protein expression was compared by incubating the transformed yeast with increasing concentrations of soluble EpoR (EposR) at 37° C. (FIG. 2). Bound antigen was detected using a monoclonal antibody to EpoR, MAB307 obtained commercially from R and D Systems (Minneapolis, Minn.) followed by anti-mouse phycoerythrin (PE, Southern Biotech, Birmingham, Ala.). […]

B1 and B2 are within 1.5-fold of each other in Kd: 8.5 nM for the first, 9 nM for the second.

target: T2, soluble EpoR (EposR), soluble recombinant human erythropoietin receptor (human); test: as above

With B3 the EC50 (read off the curve) was 6 nM.

For B3, the Kd was 5 nM.

target: T3, human erythropoietin receptor (EpoR) on …; test: cell-based or functional assay

First: B4
Second: B5
The “Emax (cell proliferation, absorbance)” value of the first is lower: 1.98 absorbance for the first, 2.4 absorbance for the second.

Compared with B6, B7 is higher in “Emax (cell proliferation, absorbance)” value: 2 absorbance for the first, 2.51 absorbance for the second.

Compared with B8, B9 is lower in “Emax (cell proliferation, absorbance)” value: 2.7 absorbance for the first, 2.65 absorbance for the second.

Going from B10 to B11, the “Emax (cell proliferation, absorbance)” value falls from 2.81 absorbance to 2.53 absorbance.

B12 was tested, and the “Emax (cell proliferation, absorbance)” value was 2.3 absorbance.
